The values that follow come from patent EP1165135B1 (City of Hope, dated 2004).

The target in assay [1] is T1, rat FXR (farnesoid X-activated receptor), full-length (rat, UniProt Q62735 1-469).
T1 construct: mature; Full-length protein cloned into pCMX and translated in vitro for the mobility shift assays; also called bile acid nuclear receptor
T1 sequence (looked up): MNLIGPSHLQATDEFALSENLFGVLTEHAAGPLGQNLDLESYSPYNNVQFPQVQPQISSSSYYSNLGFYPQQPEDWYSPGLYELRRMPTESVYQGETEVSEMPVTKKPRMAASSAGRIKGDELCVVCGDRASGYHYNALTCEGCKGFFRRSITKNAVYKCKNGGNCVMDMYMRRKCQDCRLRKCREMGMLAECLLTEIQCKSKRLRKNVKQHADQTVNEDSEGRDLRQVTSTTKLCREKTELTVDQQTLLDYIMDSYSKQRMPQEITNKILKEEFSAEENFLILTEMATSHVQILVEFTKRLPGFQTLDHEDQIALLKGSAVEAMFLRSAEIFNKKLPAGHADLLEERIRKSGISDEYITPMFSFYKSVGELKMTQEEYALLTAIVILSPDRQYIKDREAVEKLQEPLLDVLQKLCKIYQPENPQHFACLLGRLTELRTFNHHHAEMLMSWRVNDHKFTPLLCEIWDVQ
The assay can be described thus: electrophoretic mobility shift, in vitro translated FXR + RXR on EcRE probe. For orientation: A gel shift assay detects complexes by their altered migration in electrophoresis.

Assay [2] concerns the target T2, GST-GRIP1, the three receptor interaction domains of mouse GRIP1 (Arg 625 - Lys 765) fused to … (mouse, UniProt Q61026 625-765).
T2 construct: Expressed in E. coli and purified on glutathione-sepharose; also called CoA; not shown: glutathione-S-transferase (GST)
T2 sequence (looked up): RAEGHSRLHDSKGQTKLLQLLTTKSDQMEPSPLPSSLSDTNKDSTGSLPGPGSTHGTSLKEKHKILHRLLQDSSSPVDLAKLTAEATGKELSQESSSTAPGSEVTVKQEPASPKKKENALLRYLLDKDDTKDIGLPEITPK
The assay can be described thus: electrophoretic mobility shift, DR1 probe, LG268 0-1000 nM.

Assay [3] addresses T1, rat FXR (farnesoid X-activated …). The assay can be described thus: DNA binding as a heterodimer (Figure 5 and data not shown).
The target of assay [4] is T2, GST-GRIP1, the three receptor …. The assay can be described thus: phosphorimager quantitation of the mobility shift autoradiogram against LG268 concentration (Figure 4).

Numbering of substitutions follows the chain as printed.

B1: human RXRα (9-cis retinoic acid receptor), full-length, wild type (receptor, UniProt P19793 1-462, looked up)
chain: MDTKHFLPLDFSTQVNSSLTSPTGRGSMAAPSLHPSLGPGIGSPGQLHSPISTLSSPINGMGPPFSVISSPMGPHSMSVPTTPTLGFSTGSPQLSSPMNPVSSSEDIKPPLGLNGVLKVPAHPSGNMASFTKHICAICGDRSSGKHYGVYSCEGCKGFFKRTVRKDLTYTCRDNKDCLIDKRQRNRCQYCRYQKCLAMGMKREAVQEERQRGKDRNENEVESTSSANEDMPVERILEAELAVEPKTETYVEANMGLNPSSPNDPVTNICQAADKQLFTLVEWAKRIPHFSELPLDDQVILLRAGWNELLIASFSHRSIAVKDGILLATGLHVHRNSAHSAGVGAIFDRVLTELVSKMRDMQMDKTELGCLRAIVLFNPDSKGLSNPAEVEALREKVYASLEAYCKHKYPEQPGRFAKLLLRLPALRSIGLKCLEHLFFFKLIGDTPIDTFLMEMLEAPHQMT
notes: mature; also called wild-type RXR
For the molecule B1, the binding result in assay [1] is listed as “binds”.

B2: RXRm, human RXRα with the point mutation Asp 322→Pro in the ligand binding domain (receptor, UniProt P19793 1-462, looked up)
chain: B1 chain with D322P
notes: mature; Claim 9 prints Asp332→Pro; also called mutant RXR; RXR mutant
Regarding B2, in assay [2], the “fold decrease in potency of coactivator recruitment compared to wild type RXR” value was determined as 100 fold. For the same molecule, the binding result in assay [3] is reported as “binds”. For the same molecule, in assay [4], the “fold higher ligand concentration required for recruitment of coactivator (against wild-type RXR)” value was ~100 fold.
